± gives the uncertainty stated by the source.
Experiment: amyloid nucleation score (Sup35N fusion, yeast selection) (log enrichment); library NNK1; higher = more nucleation; inactive = no reads after selection
Summary of the method: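 For the nucleation score, DiMSum gave the log enrichment of output over input reads, centred on the mode score of non-aggregating sequences. Psi-negative yeast expressing Sup35N fused to peptides of 20 random codons were induced with 100 μM copper sulfate for 24 hours and grown 7 days at 30°C on medium lacking adenine and uracil. Input and output plasmid inserts were Illumina-sequenced, and sequences with under 100 input reads were excluded.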

| Substance | amyloid nucleation score |
| --- | --- |
| AIFGVTPKSVITTYNFTLHM | 6.01 ± 0.088 |
| LNFIHNGM | -0.444 ± 1.9 |
| SDEMVW | 2.65 ± 0.11 |
| CQSLPKFLHANVKYNSVSGA | -0.16 ± 0.24 |
| LSCPRNYWRSSLLVFMDGSQ | 0.319 ± 0.63 |
| LNWMCTNWAMFFYTQVILQY | -0.488 ± 1.1 |
| MVIHP | 3.57 ± 0.087 |
| VMYHGVLYLVNKKVRAWVVG | -0.511 ± 0.76 |
| AQQLLIGDDDLDTAVEFDDM | -0.509 ± 0.86 |
| SNKIGVCSKLMISFPCIEYN | -0.065 ± 1.1 |
| GWAGRVCNRGKTWDIDLRQR | -0.7 ± 0.34 |
| ASGDMSDWISWLGSMRCKIR | -0.082 ± 1 |
| VVLMLRDVEEFRQ | -0.38 ± 0.21 |
| FYRCRRSRNGGISDVFRIIP | 0.242 ± 0.3 |
| ILISVSLNMWY | 2.43 ± 0.13 |
| VKATLSFSQFLHVVSYWGF | -0.342 ± 0.71 |
| VPMPGNDQWDGKRGYICIRS | 1.31 ± 0.48 |
| RSIPSMEVSVMK | -0.805 ± 0.73 |
| QIRRGCRYFW | -0.856 ± 1.1 |
| LYESYDMVEKQDRTWSKGSS | 0.281 ± 0.65 |
| REDAYR | -0.429 ± 0.91 |
| WAFIHSCRYKLTCGGYFYAR | -0.236 ± 1.2 |

| Substance | amyloid nucleation score |
| --- | --- |
| VDVANGLADVYLLQ | -0.009 ± 0.57 |
| AEWLWEVGGMGCQVKGEEAR | -0.34 ± 0.36 |
| SFRSLFVFYDN | inactive |
| GYIVYDIMYAIFYKQTVYLI | inactive |
| WRIEACFSNFARTIFLVSGW | -0.399 ± 0.3 |
| PALNILNHYLLCKDPLFVRV | 0.348 ± 0.37 |
| MSQAALLVLGNRFGNNDIVG | -0.078 ± 0.44 |
| HLDGSVISNSMVNIVFLSLV | 5.71 ± 0.072 |
| KRDLPTQTTDNLACSWAPTQ | -0.884 ± 2.4 |
| LPLHAESTGCYGLFSEHFSI | -1.27 ± 1.2 |
| SCYVWDCENGSTLFIFVARR | inactive |
| CLPQLTDQPPKFHRLQFFCV | 0.348 ± 0.4 |
| GATTMFEVGICNENRKVYVE | -0.179 ± 0.29 |
| QVTNRMRLRLMYR | 0.699 ± 0.37 |
| YWICRDTGSYDFCMMGMGKA | 0.335 ± 0.34 |
| SCVSSLYCH | 0.057 ± 0.65 |
| VSGFGSTYLLCVN | 0.589 ± 1.2 |
| LDHNGEGFFFKGSLFVNCLA | -0.912 ± 1.6 |
| CWPRG | 0.326 ± 0.55 |
| GYIYLFGARFVVEEFGIVFW | 0.678 ± 0.93 |
| MQFLVVLCQCQFLNRVRGCA | 1.5 ± 0.35 |
| SGVINTAAMIRTDPWRVLDG | 0.765 ± 0.42 |

| Substance | amyloid nucleation score |
| --- | --- |
| YTMRGASRSTTDLLKIMIYM | -2.83 ± 2.4 |
| SVFQVCFWFKYKRR | 0.201 ± 0.43 |
| FVVEWWLASRMGLLIRGYRR | -0.462 ± 0.58 |
| WCRDLHKLYLY | -0.2 ± 0.56 |
| FCLFKFDCSLSWPQVYRYRL | 1.09 ± 0.36 |
| NGIMKIEKYG | 0.312 ± 0.79 |
| KLYPFL | 0.565 ± 0.32 |
| LIARMWANFRRGVSITARF | 0.87 ± 0.87 |
| VTYTISRELSFCPPITFGTL | 0.777 ± 0.73 |
| GCFRGPTGLCG | -0.271 ± 0.66 |
| NIGYSLAVMSAMMLLHFNFG | 2.95 ± 0.082 |
| VFLLVPWPVSFGGRIHACEW | 0.286 ± 0.47 |
| RSCELGFDPVKKFFRIRIWG | -0.006 ± 0.47 |
| ISPYPPRHLLQWVCKGE | 0.034 ± 0.68 |
| ININRNK | inactive |
| GFCFCCRSGYARVIRFEART | -0.17 ± 0.48 |
| THKFLRTRTYFMSVRSVNYW | 1.19 ± 0.41 |
| LYFEIYRVIIFKDAFVASMR | -0.63 ± 0.64 |
| KAFWSLCYVERGRWYGAVNA | 0.128 ± 1 |
| QNNCSPARPTAHNYVGGHAT | 0.656 ± 1 |
| LRRLNRHFIVTFFNGTRCDF | 2.1 ± 0.26 |
| NVSLRFGSYPGVNVGSAFMV | -0.109 ± 0.53 |

| Substance | amyloid nucleation score |
| --- | --- |
| TCVSYTP | 1.75 ± 0.56 |
| TIAGHYYLWS | -0.291 ± 0.78 |
| VMSSKDKLIWYTFL | 5.199 ± 0.049 |
| LAITDKPNANARRPPTPVLY | 0.623 ± 0.51 |
| WGMCFAVPNISTGLNNYTMP | -0.234 ± 0.64 |
| LLHVYYFFISWPMFCMVYM | -0.203 ± 0.72 |
| ICSNVLFVLILEKEASFGCY | 4.21 ± 0.051 |
| KNLKW | 0.476 ± 0.97 |
| HVFSLKRPDGCRRR | 0.711 ± 0.38 |
| MFMHELHMVDP | -0.873 ± 0.77 |
| INGMEYLEQKIEVL | 0.091 ± 0.42 |
| GVDHIGLGTEEYNQSYLGSG | -0.505 ± 0.53 |
| DVFADGKVIQAYLM | -0.117 ± 0.39 |
| IILFSSVGCSMCMTSGLEGF | 6.964 ± 0.066 |
| ARRASVEFSYSTLERGMWRC | 1.9 ± 0.18 |
| SKAWNRAGELVVSCTMVS | inactive |
| CSYPYGQSEDCGSRSGRGYA | 0.877 ± 1 |
| GLNCSGNGEVIWQP | -0.403 ± 1.4 |
| RFASISYVGTNSGLDVQSNW | 0.171 ± 1.2 |
| ADVATMSRGEKGASGGLK | 0.508 ± 0.54 |
| INGRTGILRRVGN | -1.28 ± 0.75 |
